This experiment has as its system diabetic retinopathy animal model. In words: Retinal fluorescein intensity (fundus imaging) in streptozotocin-induced diabetic retinopathy animal model. It is filed as in vivo, Brown Norway rats (BN/SsN Slc). Particulars: relative to normal control G1 = 100%, STZ-induced rats, right eye, intravitreal, non-vascular regions of retina. The protocol: Brown Norway rats (BN/SsN Slc) were used. […] Streptozotocin (STZ) was administered to animals determined to be healthy during the acclimation period, and blood sugar levels were measured on day 7 of administration. […] Streptozotocin was intravenously administered once at a dose of 60 mg/kg on the day of induction. G1 is a normal control in which diabetic retinopathy was not induced, G2 is a control in which diabetic retinopathy was induced and to which the vehicle of Comparative Example 1 was administered, and G3 and G4 are groups to which ranibizumab of Comparative Example 2 was administered as a positive control material, and G5 to G9 are groups to which the SGLT-2 inhibitors according to Examples 1 to 5 were administered, respectively. For intravitreal injection, animals were anesthetized, and a syringe with a 31-gauge needle was used to perform intravitreal injections into the right eye of the respective animals. The test material was administered as a single dose on the day of administration. The injection volume was either 1 μL/eye or 5 μL/eye. […] Retinal examination and efficacy were assessed using retinal fluorescent fundus photographs. […] The relative levels (%) of the measured values for each individual were analyzed, with the average value of the normal control group (G1) as the reference (100%), and comparisons were made between the groups. […]

B1: Ranibizumab (antibody, chains of the INN, looked up, V domains shown)
VH: EVQLVESGGGLVQPGGSLRLSCAASGYDFTHYGMNWVRQAPGKGLEWVGWINTYTGEPTYAADFKRRFTFSLDTSKSTAYLQMNSLRAEDTAVYYCAKYPYYYGTSHWYFDVWGQGTLVTVSS
VL: DIQLTQSPSSLSASVGDRVTITCSASQDISNYLNWYQQKPGKAPKVLIYFTSSLHSGVPSRFSGSGSGTDFTLTISSLQPEDFATYYCQQYSTVPWTFGQGTKVEIK
notes: LUCENTIS® purchased and administered as a positive control; anti-VEGF monoclonal antibody therapy
B1: the “Fluorescence intensity on 21st day” value reads like this: (10 μg/eye, 1 μL/eye, once (G4)) 128.359%; (50 μg/eye, 5 μL/eye, once (G3)) 125.586 ± 14.799 %.

(Values after patent US20240285573A1, “PHARMACEUTICAL COMPOSITION FOR PREVENTING OR TREATING DIABETIC EYE DISEASE COMPRISING SGLT-2 INHIBITOR” (priority 2021, published 2024).)
